In IntAct's records for PubMed 29039417:

B1: BBSome complex member BBS5 (Homo sapiens), Q8N3I7 (parent)
chain: MSVLDALWEDRDVRFDLSAQQMKTRPGEVLIDCLDSIEDTKGNNGDRGRLLVTNLRILWHSLALSRVNVSVGYNCILNITTRTANSKLRGQTEALYILTKCNSTRFEFIFTNLVPGSPRLFTSVMAVHRAYETSKMYRDFKLRSALIQNKQLRLLPQEHVYDKINGVWNLSSDQGNLGTFFITNVRIVWHANMNDSFNVSIPYLQIRSIKIRDSKFGLALVIESSQQSGGYVLGFKIDPVEKLQESVKEINSLHKVYSASPIFGVDYEMEEKPQPLEALTVEQIQDDVEIDSDGHTDAFVAYFADGNKQQDREPVFSEELGLAIEKLKDGFTLQGLWEVMS
partner: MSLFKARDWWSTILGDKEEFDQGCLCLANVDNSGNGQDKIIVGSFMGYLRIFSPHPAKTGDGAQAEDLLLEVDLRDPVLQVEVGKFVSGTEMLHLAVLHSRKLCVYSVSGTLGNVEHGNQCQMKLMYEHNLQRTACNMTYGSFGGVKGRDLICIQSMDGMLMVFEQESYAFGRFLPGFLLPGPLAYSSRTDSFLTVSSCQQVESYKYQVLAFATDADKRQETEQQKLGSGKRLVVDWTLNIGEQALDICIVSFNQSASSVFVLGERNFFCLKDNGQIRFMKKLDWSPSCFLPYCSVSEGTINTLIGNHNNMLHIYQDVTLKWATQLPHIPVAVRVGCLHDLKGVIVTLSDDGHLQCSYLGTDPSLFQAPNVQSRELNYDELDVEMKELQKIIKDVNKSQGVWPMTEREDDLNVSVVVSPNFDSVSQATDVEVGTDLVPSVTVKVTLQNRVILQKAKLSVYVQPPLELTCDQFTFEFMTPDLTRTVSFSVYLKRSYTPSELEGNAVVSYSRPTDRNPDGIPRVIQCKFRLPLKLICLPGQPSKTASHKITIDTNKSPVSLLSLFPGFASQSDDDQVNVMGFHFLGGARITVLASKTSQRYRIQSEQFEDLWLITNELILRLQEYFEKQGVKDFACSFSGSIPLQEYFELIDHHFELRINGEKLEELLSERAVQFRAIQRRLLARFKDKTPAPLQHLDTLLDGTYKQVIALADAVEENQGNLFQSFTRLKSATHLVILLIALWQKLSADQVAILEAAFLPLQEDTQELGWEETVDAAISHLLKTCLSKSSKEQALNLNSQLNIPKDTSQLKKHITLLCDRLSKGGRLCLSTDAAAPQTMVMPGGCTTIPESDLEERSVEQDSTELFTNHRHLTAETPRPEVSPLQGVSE

Variants of: B1
Conditions: with pthb1_human BBS9, Q3SYG4

Effect of a mutation on the interaction, with no effect:
MSVLDALWEDRDVRFDLSAQQMKTRPGEVLIDCLDSIEDTKGNNGDRGRLLVTNLRILWHSLALSRVNVSVGYNCILNITTRTANSKLRGQTEALYILTKCNSTRFEFIFTNLVPGSPRLFTSVMAVHRAYETSKMYRDFKLRSALIQNKQLRLLPQEHVYDKINGVWNLSSDQGNLGTFFITNVRIVWHANMNDSFNVSIPYLQIRSIKIRDSKFGLALVIESSQQSGGYVLGFKIDPVEKLQESVKEINALHKVYSASPIFGVDYEMEEKPQPLEALTVEQIQDDVEIDSDGHTDAFVAYFADGNKQQDREPVFSEELGLAIEKLKDGFTLQGLWEVMS [S252A]
MSVLDALWEDRDVRFDLSAQQMKTRPGEVLIDCLDSIEDTKGNNGDRGRLLVTNLRILWHSLALSRVNVSVGYNCILNITTRTANSKLRGQTEALYILTKCNSTRFEFIFTNLVPGSPRLFTSVMAVHRAYETSKMYRDFKLRSALIQNKQLRLLPQEHVYDKINGVWNLSSDQGNLGTFFITNVRIVWHANMNDSFNVSIPYLQIRSIKIRDSKFGLALVIESSQQSGGYVLGFKIDPVEKLQESVKEINKLHKVYSASPIFGVDYEMEEKPQPLEALTVEQIQDDVEIDSDGHTDAFVAYFADGNKQQDREPVFSEELGLAIEKLKDGFTLQGLWEVMS [S252K]
MSVLDALWEDRDVRFDLSAQQMKTRPGEVLIDCLDSIEDTKGNNGDRGRLLVTNLRILWHSLALSRVNVSVGYNCILNITTRTANSKLRGQTEALYILTKCNSTRFEFIFTNLVPGSPRLFTSVMAVHRAYETSKMYRDFKLRSALIQNKQLRLLPQEHVYDKINGVWNLSSDQGNLGTFFITNVRIVWHANMNDSFNVSIPYLQIRSIKIRDSKFGLALVIESSQQSGGYVLGFKIDPVEKLQESVKEINELHKVYSASPIFGVDYEMEEKPQPLEALTVEQIQDDVEIDSDGHTDAFVAYFADGNKQQDREPVFSEELGLAIEKLKDGFTLQGLWEVMS [S252E]
MSVLDALWEDRDVRFDLSAQQMKTRPGEVLIDCLDSIEDTKGNNGDRGRLLVTNLRILWHSLALSRVNVSVGYNCILNITTRTANSKLRGQTEALYILTKCNSTRFEFIFTNLVPGSPRLFTSVMAVHRAYETSKMYRDFKLRSALIQNKQLRLLPQEHVYDKINGVWNLSSDQGNLGTFFITNVRIVWHANMNDSFNVSIPYLQIRSIKIRDSKFGLALVIESSQQSGGYVLGFKIDPVEKLQESVKEIKSLHKVYSASPIFGVDYEMEEKPQPLEALTVEQIQDDVEIDSDGHTDAFVAYFADGNKQQDREPVFSEELGLAIEKLKDGFTLQGLWEVMS [N251K]
MSVLDALWEDRDVRFDLSAQQMKTRPGEVLIDCLDSIEDTKGNNGDRGRLLVTNLRILWHSLALSRVNVSVGYNCILNITTRTANSKLRGQTEALYILTKCNSTRFEFIFTNLVPGSPRLFTSVMAVHRAYETSKMYRDFKLRSALIQNKQLRLLPQEHVYDKINGVWNLSSDQGNLGTFFITNVRIVWHANMNDSFNVSIPYLQIRSIKIRDSKFGLALVIESSQQSGGYVLGFKIDPVEKLQESVKEIESLHKVYSASPIFGVDYEMEEKPQPLEALTVEQIQDDVEIDSDGHTDAFVAYFADGNKQQDREPVFSEELGLAIEKLKDGFTLQGLWEVMS [N251E]
MSVLDALWEDRDVRFDLSAQQMKTRPGEVLIDCLDSIEDTKGNNGDRGRLLVTNLRILWHSLALSRVNVSVGYNCILNITTRTANSKLRGQTEALYILTKCNSTRFEFIFTNLVPGSPRLFTSVMAVHRAYETSKMYRDFKLRSALIQNKQLRLLPQEHVYDKINGVWNLSSDQGNLGTFFITNVRIVWHANMNDSFNVSIPYLQIRSIKIRDSKFGLALVIESSQQSGGYVLGFKIDPVEKLQESVKEIASLHKVYSASPIFGVDYEMEEKPQPLEALTVEQIQDDVEIDSDGHTDAFVAYFADGNKQQDREPVFSEELGLAIEKLKDGFTLQGLWEVMS [N251A]
MSVLDALWEDRDVRFDLSAQQMKTRPGEVLIDCLDSIEDTKGNNGDRGRLLVTNLRILWHSLALSRVNVSVGYNCILNITTRTANSKLRGQTEALYILTKCNSTRFEFIFTNLVPGSPRLFTSVMAVHRAYETSKMYRDFKLRSALIQNKQLRLLPQEHVYDKINGVWNLSSDQGNLGTFFITNVRIVWHANMNDSFNVSIPYLQIRSIKIRDSKFGLALVIESSQQSGGYVLGFKIDPVEKLQESVKEENSLHKVYSASPIFGVDYEMEEKPQPLEALTVEQIQDDVEIDSDGHTDAFVAYFADGNKQQDREPVFSEELGLAIEKLKDGFTLQGLWEVMS [I250E]
MSVLDALWEDRDVRFDLSAQQMKTRPGEVLIDCLDSIEDTKGNNGDRGRLLVTNLRILWHSLALSRVNVSVGYNCILNITTRTANSKLRGQTEALYILTKCNSTRFEFIFTNLVPGSPRLFTSVMAVHRAYETSKMYRDFKLRSALIQNKQLRLLPQEHVYDKINGVWNLSSDQGNLGTFFITNVRIVWHANMNDSFNVSIPYLQIRSIKIRDSKFGLALVIESSQQSGGYVLGFKIDPVEKLQESVKEKNSLHKVYSASPIFGVDYEMEEKPQPLEALTVEQIQDDVEIDSDGHTDAFVAYFADGNKQQDREPVFSEELGLAIEKLKDGFTLQGLWEVMS [I250K]
MSVLDALWEDRDVRFDLSAQQMKTRPGEVLIDCLDSIEDTKGNNGDRGRLLVTNLRILWHSLALSRVNVSVGYNCILNITTRTANSKLRGQTEALYILTKCNSTRFEFIFTNLVPGSPRLFTSVMAVHRAYETSKMYRDFKLRSALIQNKQLRLLPQEHVYDKINGVWNLSSDQGNLGTFFITNVRIVWHANMNDSFNVSIPYLQIRSIKIRDSKFGLALVIESSQQSGGYVLGFKIDPVEKLQESVKEANSLHKVYSASPIFGVDYEMEEKPQPLEALTVEQIQDDVEIDSDGHTDAFVAYFADGNKQQDREPVFSEELGLAIEKLKDGFTLQGLWEVMS [I250A]
